Test results from US20210070872A1 (AGENUS, published 2021).

T1: biotinylated GITR (human, UniProt Q9Y5U5 26-161, limits assumed, biotinylated (sites not given))
T1 construct: also called GITR-bio; Biotin-GITR
T1 sequence: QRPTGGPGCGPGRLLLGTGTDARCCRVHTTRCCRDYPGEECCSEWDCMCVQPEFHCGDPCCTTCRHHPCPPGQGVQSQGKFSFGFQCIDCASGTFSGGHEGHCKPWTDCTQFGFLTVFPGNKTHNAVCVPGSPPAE


target: T1, biotinylated GITR; test: BLI (Octet), biotin-GITR on streptavidin tips, antibody supernatant
Method: Several hundred germlined antibodies were selected based on binding kinetics as determined by Octet measurements (Octet RED 96 system; ForteBio™ Inc., Menlo Park, Calif.). The experimental procedure was configured according to the instruction manual of the instrument. Biotin-GITR was bound to Streptavidin biosensor (SA) and PBS (pH 7.4) was used as a blank control. Briefly, the interaction analyses were conducted at 30° C. in running buffer (PBS, 0.05% Tween, pH7.4). Sensor tips were pre-wet for 10 minutes in running buffer immediately prior to use, and the micro plates used in the Octet were filled with 200 μl of sample or buffer per well and agitated at 800 rpm. For the experiments, commercially available precoated SA tips were used. Biotinylated GITR was loaded onto the ForteBio SA fibers in PBS pH7.4 for 10 minutes and washed for 4 minutes. For the association phase, the ligand-coated SA tips were immersed for 5 minutes in cell culture supernatant that was diluted 1:10 in running buffer prior to the measurement. Dissociation of the antibody-antigen complex was measured in wells containing the Octet buffer alone for 5 minutes. After each run, the tips were regenerated with Glycine (10 mM, pH 2.0). Affinity, Kₒₙ and Koff were determined with Octet evaluation software v6.3 using a 1:1 binding model with local full fitting.

Row | Kd | koff | kon | Binder
1 | 1.83 nM | 0.00141 s⁻¹ | 772000 M⁻¹ s⁻¹ | germline variant antibody 61 (H1917A02 / K1917A02) (antibody, V domains shown, IGHG1/IGKC expression vectors; measured from CHO culture supernatant; also called Antibody ID 61) VH: QVQLVQSGTEVKKPGASVKVSCKASGYTFTEYAMHWVRQAPGQGLEWMGLIRTYSGGVSYNQKFQERVTMTVDKSISTAYMELSRLRSDDTAVYYCAKSGTVRGFAYWGQGTLVTVSS VL: DIVMTQSPDSLAVSLGERATINCKSSQSLLNSGNQKNYLSWYQQKPGQPPKLLIYWASTRESGVPDRFSGSGSGTDFTLTISSVQAEDVAVYYCQNDYSFPYTFGQGTKLEIK
2 | 2.92 nM | 0.000925 s⁻¹ | 317000 M⁻¹ s⁻¹ | germline variant antibody 75 (H1917C09 / K1917C09) (antibody, V domains shown, IGHG1/IGKC expression vectors; measured from CHO culture supernatant; also called Antibody ID 75) VH: QVQLVQSGTEVKKPGASVKVSCKGSGYTFTGYAMYWVRQAPGQGLEWIGVIRTYSGGVTYNQKFQGRVTMTVDKSISTAYMELSRLRSDDTAVYYCAKSGTVRGFAYWGQGTLVTVSS VL: DIVMTQSPDSLAVSLGERATINCKSSQSLLNSGNQKNYLSWYHQKPGQPPKLLIYWASTRESGVPDRFTGSGSGTDFTLTISSLQAEDVAVYYCQNDYSYPYTFGQGTKLEIK
3 | 1.28 nM | 0.00037 s⁻¹ | 289000 M⁻¹ s⁻¹ | germline variant antibody 85 (H1917E02 / K1917E02) (antibody, V domains shown, IGHG1/IGKC expression vectors; measured from CHO culture supernatant; also called Antibody ID 85) VH: QVQLVQSGAEVKKPGASVKVSCKASGYTFTEYAMYWVRQAPGQGLEWMGVIRTYSGGVTYNQKFKDRATMTVDTSISTAYMELSRLRSDDTAVYYCAKSGTVRGFAYWGQGTLVTVSS VL: DIVMTQSPDSLAVSLGERATINCKSSQSLLNSSNQKNYLSWYHQKPGQPPKLLIYWASTRESGVPDRFSGSGSGTDFTLTISSVQAEDVAVYYCQNDYSYPYTFGQGTKLEIK
4 | 2.72 nM | 0.00105 s⁻¹ | 386000 M⁻¹ s⁻¹ | germline variant antibody 76 (H1917C10 / K1917C10) (antibody, V domains shown, IGHG1/IGKC expression vectors; measured from CHO culture supernatant; also called Antibody ID 76) VH: QVQLVQSGAGVKKPGASVKVSCKGSGYTFTDYAMHWVRQAPGQGLEWMGLIRTFSGDVSYNQKFRERATMTVDKSISTAYMELSRLRSDDTAVYYCAKSGTVRGFAYWGQGTLVTVSS VL: DIVMTQSPDSLAVSLGERATINCKSSQSLLNSGNQKNYLSWYQQKPGQPPKMLIYWASTRESGVPDRFSGSGSGTDFTLTISSVQAEDVAVYHCQNDYSFPYTFGQGTKLEIK
5 | 1.09 nM | 0.000373 s⁻¹ | 344000 M⁻¹ s⁻¹ | germline variant antibody 96 (H1917G06 / K1917G06) (antibody, V domains shown, IGHG1/IGKC expression vectors; measured from CHO culture supernatant; also called Antibody ID 96) VH: QVQLVQSGAEVKKPGASVKVSCKGSGYTFTEYAMYWVRQAPGQGMEWMGVIRTYSGGLTYNQKFRDRVTMTVDTSISTAYMELSRLRSDDTAVYYCAKSGTVRGFAYWGQGTLVTVSS VL: DIVMTQSPDSLAVSLGERATINCKSSQSLLNSSNQKNYLSWYHQKPGQPPKLLIYWASTRESGVPDRFSGSGSGTDFTLTISSLQAEDVAVYHCQNDYSYPYTFGQGTKLEIK
6 | 0.75 nM | 0.000432 s⁻¹ | 577000 M⁻¹ s⁻¹ | germline variant antibody 86 (H1917E03 / K1917E03) (antibody, V domains shown, IGHG1/IGKC expression vectors; measured from CHO culture supernatant; also called Antibody ID 86) VH: QVQLVQSGAEVKKPGASVKVSCKGSGYTFTEYAMYWVRQAPGQGMEWMGVIRTYSGGVTYNQKFRDRATMTVDTSISTAYMELSRLRSDDTAVYYCAKSGTVRGFAYWGQGTLVTVSS VL: DIVMTQSPDSLAVSLGERATINCKSSQSLLNSGNQKNYLTWYHQKPGQPPKLLIYWASTRESGVPDRFSGSGSGTDFTLTISSVQAEDVAVYYCQNDYSYPYTFGQGTKLEIK
7 | 1.01 nM | 0.000361 s⁻¹ | 357000 M⁻¹ s⁻¹ | germline variant antibody 92 (H1917F05 / K1917F05) (antibody, V domains shown, IGHG1/IGKC expression vectors; measured from CHO culture supernatant; also called Antibody ID 92) VH: QVQLVQSGAEVKKPGASVKVSCKGSGYTFTEYAMYWVRQAPGQGLEWMGLIRTFSGGVTYNQKFQGRATMTVDTSISTAYMELSRLQSDDTAVYYCAKSGTVRGFAYWGQGTLVTVSS VL: DIVMTQSPDSLAVSLGERATINCKSSQSLLNSGNQKNYLTWYHQKPGQPPKMLIYWASTRESGVPDRFSGSGSGTNFTLTISSVQAEDVAVYHCQNDYSYPYTFGQGTKLEIK
8 | 1.55 nM | 0.000447 s⁻¹ | 289000 M⁻¹ s⁻¹ | germline variant antibody 68 (H1917B01 / K1917B01) (antibody, V domains shown, IGHG1/IGKC expression vectors; measured from CHO culture supernatant; also called Antibody ID 68) VH: QVQLVQSGTEVKKPGASVKVSCKGSGYTFTGYAMYWVRQAPGQGLEWIGLIRTYSGGVTYNQKFRGRVTMTVDTSISTAYMELSRLRSDDTAVYYCAKSGTVRGFAYWGQGTLVTVSS VL: DIVMTQSPDSLAVSLGERATINCKSSQSLLNSGNQKNYLTWYQQKPGQPPKMLIYWASTRESGVPDRFTGSGSGTDFTLTISSLQAEDVAVYYCQNDYSYPYTFGQGTKLEIK
9 | 0.696 nM | 0.000454 s⁻¹ | 652000 M⁻¹ s⁻¹ | germline variant antibody 80 (H1917D07 / K1917D07) (antibody, V domains shown, IGHG1/IGKC expression vectors; measured from CHO culture supernatant; also called Antibody ID 80) VH: QVQLVQSGTEVKKPGASVKVSCKASGYTFTEYAMHWVRQAPGQGMEWMGLIRTFSGDVSYNQKFRGRVTMTVDTSISTAYMELSRLRSDDTAVYYCAKSGTVRGFAYWGQGTLVTVSS VL: DIVMTQSPDSLAVSLGERATINCKSSQSLLNSSNQKNYLTWYQQKPGQPPKLLIYWASTRESGVPDRFTGSGSGTDFTLTISSLQAEDVAVYYCQNDYSFPYTFGQGTKLEIK
10 | 2.21 nM | 0.000672 s⁻¹ | 305000 M⁻¹ s⁻¹ | germline variant antibody 95 (H1917G05 / K1917G05) (antibody, V domains shown, IGHG1/IGKC expression vectors; measured from CHO culture supernatant; also called Antibody ID 95) VH: QVQLVQSGAEVKKPGASVKVSCKGSGYTFTDYAMYWVRQAPGQGLEWMGLIRTYSGGVSYNQKFRGRVTMTVDTSISTAYMELSRLRSDDTAVYYCAKSGTVRGFAYWGQGTFVTVSS VL: DIVMTQSPDSLAVSLGERATINCKSSQSLLNSGNQKNYLTWYQQKPGQPPKMLIYWASTRESGVPDRFSGSGSGTDFTLTISSVQAEDVAVYHCQNDYSFPYTFGQGTKLEIK
11 | 0.241 nM | 0.000252 s⁻¹ | 1.05e+06 M⁻¹ s⁻¹ | germline variant antibody 71 (H1917B07 / K1917B07) (antibody, V domains shown, IGHG1/IGKC expression vectors; measured from CHO culture supernatant; also called Antibody ID 71) VH: QVQLVQSGAEVKKPGASVKVSCKASGYTFTGYAMYWVRQAPGQGMEWMGVIRTFSGGVTYNQKFRGRATMTVDTSISTAYMELSRLRSDDTAVYYCAKSGTVRGFAYWGQGTLVTVSS VL: DIVMTQSPDSLAVSLGERATINCKSSQSLLNSSNQKNYLTWYQQKPGQPPKLLIYWASTRESGVPDRFTGSGSGTDFTLTISSVQAEDVAVYHCQNDYSYPYTFGQGTKLEIK
12 | 1.18 nM | 0.00044 s⁻¹ | 372000 M⁻¹ s⁻¹ | germline variant antibody 94 (H1917G01 / K1917G01) (antibody, V domains shown, IGHG1/IGKC expression vectors; measured from CHO culture supernatant; also called Antibody ID 94) VH: QVQLVQSGTEVKKPGASVKVSCKGSGYTFTGYAMYWVRQAPGQGLEWIGVIRTFSGGVTYNQKFRDRVTMTVDKSISTAYMELSRLRSDDTAVYYCAKSGTVRGFAYWGQGTFVTVSS VL: DIVMTQSPDSLAVSLGERATINCKSSQSLLNSGNQKNYLTWYQQKPGQPPKLLIYWASTRESGVPDRFTGSGSGTDFTLTISSVQAEDVAVYHCQNDYSYPYTFGQGTKLEIK
13 | 3.07 nM | 0.00159 s⁻¹ | 520000 M⁻¹ s⁻¹ | germline variant antibody 91 (H1917F03 / K1917F03) (antibody, V domains shown, IGHG1/IGKC expression vectors; measured from CHO culture supernatant; also called Antibody ID 91) VH: QVQLVQSGTEVKKPGASVKVSCKGSGYTFTEYAMHWVRQAPGQGMEWMGLIRTYSGGVSYNQKFQERATMTVDTSISTAYMELSRLRSDDTAVYYCAKSGTVRGFAYWGQGTLVTVSS VL: DIVMTQSPDSLAVSLGERATINCKSSQSLLNSGNQKNYLSWYQQKPGQPPKLLIYWASTRESGVPDRFSGSGSGTDFTLTISSVQAEDVAVYHCQNEYSFPYTFGQGTKLEIK
14 | 2.87 nM | 0.00129 s⁻¹ | 450000 M⁻¹ s⁻¹ | germline variant antibody 79 (H1917D04 / K1917D04) (antibody, V domains shown, IGHG1/IGKC expression vectors; measured from CHO culture supernatant; also called Antibody ID 79) VH: QVQLVQSGTEVKKPGASVKVSCKGSGYTFTEYAMHWVRQAPGQGMEWMGLIRTYSGGVTYNQKFRERVTMTVDKSISTAYMELSRLRSDDTAVYYCAKSGTVRGFAYWGQGTLVTVSS VL: DIVMTQSPDSLAVSLGERATINCKSSQSLLNSGNQKNYLTWYHQKPGQPPKMLIYWASTRESGVPDRFSGSGSGTDFTLTISSLQAEDVAVYYCQNDYSYPYTFGQGTKLEIK
